Consider two proteins from paper PMC11269473, “Monoamine oxidase inhibition properties of 2,1-benzisoxazole derivatives” (Molecular Diversity, 2023).

Substrate in data set [1]: NCCC(=O)c1ccccc1N
Nature of the data set: Lineweaver–Burk plots / mode of MAO-A inhibition and Ki. It counts as biochemical, human. As to conditions: other: global (shared) fitting of the kinetic data; pH 7.4; 37.0 °C. The protocol:
(§1) These two compounds represent potent MAO inhibitors among the study compounds. […] Each line of the Lineweaver–Burk plots was constructed with the kynuramine concentration ranging from 15 to 250 μM.
(§2) The insets are replots of the slopes of the Lineweaver–Burk plots versus inhibitor concentration. The Ki value equals the negative of the x-axis intercept when y = 0
(§3) IC50 values for the inhibition of MAO were measured as described previously. Microsomes from insect cells containing recombinant human MAO-A and MAO-B (5 mg protein/mL) served as enzyme sources (Sigma-Aldrich) while kynuramine was used as non-specific MAO substrate. The enzyme reactions (200 µL reactions prepared in 96-well microtiter plates) contained phosphate buffer (100 mM, pH 7.4), 50 µM kynuramine and the test inhibitors at concentrations of 0.003–100 µM. Stock solutions of the test inhibitors were dissolved in DMSO and added to the enzyme reactions to give a final DMSO concentration of 4% (v/v). […] The concentration of 4-hydroxyquinoline, the product of kynuramine oxidation by MAO, was measured by fluorescence spectrophotometry (λex = 310 nm; λem = 400 nm). […] IC50 values were estimated in triplicate determinations from these plots and are expressed as mean ± standard deviation (SD). […]

Substrate in data set [2]: NCCC(=O)c1ccccc1N
Nature of the data set: Lineweaver–Burk plots / mode of MAO-B inhibition and Ki. The data set is classed as biochemical, human. As to conditions: other: global (shared) fitting of the kinetic data; pH 7.4; 37.0 °C. Here is the method: as §1, §2, §3

B1: recombinant human MAO-A (Homo sapiens) (protein)
chain: MENQEKASIAGHMFDVVVIGGGISGLSAAKLLTEYGVSVLVLEARDRVGGRTYTIRNEHVDYVDVGGAYVGPTQNRILRLSKELGIETYKVNVSERLVQYVKGKTYPFRGAFPPVWNPIAYLDYNNLWRTIDNMGKEIPTDAPWEAQHADKWDKMTMKELIDKICWTKTARRFAYLFVNINVTSEPHEVSALWFLWYVKQCGGTTRIFSVTNGGQERKFVGGSGQVSERIMDLLGDQVKLNHPVTHVDQSSDNIIIETLNHEHYECKYVINAIPPTLTAKIHFRPELPAERNQLIQRLPMGAVIKCMMYYKEAFWKKKDYCGCMIIEDEDAPISITLDDTKPDGSLPAIMGFILARKADRLAKLHKEIRKKKICELYAKVLGSQEALHPVHYEEKNWCEEQYSGGCYTAYFPPGIMTQYGRVIRQPVGRIFFAGTETATKWSGYMEGAVEAGERAAREVLNGLGKVTEKDIWVQEPESKDVPAVEITHTFWERNLPSVSGLLKIIGFSTSVTALGFVLYKYKLLPRS
notes: purchased Sigma-Aldrich; host or cells: insect cells (microsomes)
As usually defined, the Km is the substrate concentration at which the rate is half of its maximum. For the protein B1, in data set [1], the Michaelis-Menten constant (Km) stood at 49.8 ± 3.07 µM and the Vmax is 34.0 ± 0.80 nmol/min.mg protein.

B2: recombinant human MAO-B (Homo sapiens) (protein)
chain: MSNKCDVVVVGGGISGMAAAKLLHDSGLNVVVLEARDRVGGRTYTLRNQKVKYVDLGGSYVGPTQNRILRLAKELGLETYKVNEVERLIHHVKGKSYPFRGPFPPVWNPITYLDHNNFWRTMDDMGREIPSDAPWKAPLAEEWDNMTMKELLDKLCWTESAKQLATLFVNLCVTAETHEVSALWFLWYVKQCGGTTRIISTTNGGQERKFVGGSGQVSERIMDLLGDRVKLERPVIYIDQTRENVLVETLNHEMYEAKYVISAIPPTLGMKIHFNPPLPMMRNQMITRVPLGSVIKCIVYYKEPFWRKKDYCGTMIIDGEEAPVAYTLDDTKPEGNYAAIMGFILAHKARKLARLTKEERLKKLCELYAKVLGSLEALEPVHYEEKNWCEEQYSGGCYTTYFPPGILTQYGRVLRQPVDRIYFAGTETATHWSGYMEGAVEAGERAAREILHAMGKIPEDEIWQSEPESVDVPAQPITTTFLERHLPSVPGLLRLIGLTTIFSATALGFLAHKRGLLVRV
notes: as for B1
As for B2, in data set [2], the Km is given as 32.4 ± 3.73 µM and the Vmax came to 8.39 ± 0.28 nmol/min.mg protein.
